The values below come from US20190153061A1.

In the assay the target is B-cell maturation antigen (BCMA) expressed on cells (human), Q02223. The assay can be described thus: cell-based or functional assay.
B-cell maturation antigen (BCMA) expressed on cells (human), Q02223, sequence (Q02223 whole entry): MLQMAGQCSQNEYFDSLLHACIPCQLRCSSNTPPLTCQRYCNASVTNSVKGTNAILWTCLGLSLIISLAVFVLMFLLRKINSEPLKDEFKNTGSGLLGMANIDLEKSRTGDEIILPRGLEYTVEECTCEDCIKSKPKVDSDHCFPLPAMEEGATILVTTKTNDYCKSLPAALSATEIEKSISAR

B1: BCMA-7 CAR (139106) (protein)
chain: EVQLVETGGGLVQPGGSLRLSCAVSGFALSNHGMSWVRRAPGKGLEWVSGIVYSGSTYYAASVKGRFTISRDNSRNTLYLQMNSLRPEDTAIYYCSAHGGESDVWGQGTTVTVSSASGGGGSGGRASGGGGSEIVMTQSPATLSVSPGERATLSCRASQSVSSKLAWYQQKPGQAPRLLMYGASIRATGIPDRFSGSGSGTEFTLTISSLEPEDFAVYYCQQYGSSSWTFGQGTKVEIKTTTPAPRPPTPAPTIASQPLSLRPEACRPAAGGAVHTRGLDFACDIYIWAPLAGTCGVLLLSLVITLYCKRGRKKLLYIFKQPFMRPVQTTQEEDGCSCRFPEEEEGGCELRVKFSRSADAPAYKQGQNQLYNELNLGRREEYDVLDKRRGRDPEMGGKPRRKNPQEGLYNELQKDKMAEAYSEIGMKGERRRGKGHDGLYQGLSTATKDTYDALHMQALPPR
Take B1: the Cell killing EC50; KMS11-luc was found to be 0.15 not printed; the JNL binding assay, ratio to K562; K562-BCMA is 2.55; the JNL binding assay, ratio to K562; NCI-H929 turned out to be 2.36; the JNL binding assay, ratio to K562; RPMI 8226 worked out at 2.77. The Proliferation, CD3 ratio to no target; K562-BCMA was 1.72; the Proliferation, CD3 ratio to no target; KMS11-luc is 1.71; the Proliferation, CD3 ratio to no target; NCI-H929 was determined as 1.8; the Proliferation, CD3 ratio to no target; RPMI 8226 stood at 1.62. In addition, the Proliferation, CD4 ratio to no target; K562-BCMA amounted to 2.17; the Proliferation, CD4 ratio to no target; KMS11-luc is 1.96; the Proliferation, CD4 ratio to no target; NCI-H929 is 2.23; the Proliferation, CD4 ratio to no target; RPMI 8226 was 1.91. Besides, the Proliferation, CD8 ratio to no target; K562-BCMA came out at 1.08; the Proliferation, CD8 ratio to no target; KMS11-luc came out at 1.35; the Proliferation, CD8 ratio to no target; NCI-H929 was determined as 1.18; the Proliferation, CD8 ratio to no target; RPMI 8226 is 1.19.
